According to patent US20040059519A1:
“And” between values parts separate entries of the source, which are not always exact repeats. Identical values can stand only once.

Assays:
Alpha fetoprotein [1] = target: Alpha fetoprotein (UniProt P02771); assay: anti-AFP capture beads, flow cytometry; AFP 0.1 ng/mL, anti-hCG probe
[2] = target: Human chorionic gonadotropin (human) (UniProt P01215); assay: bead sandwich, flow cytometry; capture A3 beads, hCG 20.0 ug/mL
[3] = target: Human chorionic gonadotropin (human) (UniProt P01215); assay: bead sandwich, flow cytometry; capture A2 (MAB 602) beads, hCG 20.0 ug/mL
Alpha fetoprotein [4] = target: Alpha fetoprotein (UniProt P02771); assay: MAB602 capture beads, flow cytometry; AFP 0.0 ng/mL, anti-hCG probe
[5] = target: Human chorionic gonadotropin (human) (UniProt P01215); assay: multiplex sandwich, MAB602 capture beads; hCG 4 ng/mL, washed
[6] = target: Human chorionic gonadotropin (human) (UniProt P01215); assay: multiplex sandwich, MAB602 capture beads; hCG 31 ng/mL, washed
[7] = target: Human chorionic gonadotropin (human) (UniProt P01215); assay: multiplex no-wash sandwich, MAB602 beads; serum Level 1, hCG 22.8 mU/mL
[8] = target: Human chorionic gonadotropin (human) (UniProt P01215); assay: multiplex sandwich, MAB602 capture beads; hCG 500 ng/mL, washed
[9] = target: Human chorionic gonadotropin (human) (UniProt P01215); assay: multiplex sandwich, MAB602 capture beads; hCG 62 ng/mL, no wash
[10] = target: Human chorionic gonadotropin (human) (UniProt P01215); assay: multiplex no-wash sandwich, MAB602 beads; Negative serum, hCG 10 mU/mL as printed
[11] = target: Human chorionic gonadotropin (human) (UniProt P01215); assay: MAB602 capture beads, flow cytometry; hCG 1000.0 ng/mL, anti-hCG probe
Alpha fetoprotein [12] = target: Alpha fetoprotein (UniProt P02771); assay: MAB602 capture beads, flow cytometry; AFP 10.0 ng/mL, anti-hCG probe
[13] = target: Human chorionic gonadotropin (human) (UniProt P01215); assay: sandwich, MAB602 capture beads, flow cytometry; hCG 0.0002 ng/mL
[14] = target: Human chorionic gonadotropin (human) (UniProt P01215); assay: MAB602 capture beads, flow cytometry; hCG 0.0 ng/mL, anti-hCG probe
[15] = target: Human chorionic gonadotropin (human) (UniProt P01215); assay: multiplex sandwich, MAB602 capture beads; hCG 16 ng/mL, washed
[16] = target: Human chorionic gonadotropin (human) (UniProt P01215); assay: multiplex sandwich, MAB602 capture beads; hCG 1 ng/mL, washed
[17] = target: Human chorionic gonadotropin (human) (UniProt P01215); assay: anti-AFP capture beads, flow cytometry; hCG 0.1 ng/mL, anti-AFP probe
Alpha fetoprotein [18] = target: Alpha fetoprotein (UniProt P02771); assay: multiplex sandwich, S10473 capture beads; AFP 2 ng/mL, washed
[19] = target: Human chorionic gonadotropin (human) (UniProt P01215); assay: anti-AFP capture beads, flow cytometry; hCG 1.0 ng/mL, anti-AFP probe
Alpha fetoprotein [20] = target: Alpha fetoprotein (UniProt P02771); assay: multiplex sandwich, S10473 capture beads; AFP 0.25 ng/mL, no wash
Alpha fetoprotein [21] = target: Alpha fetoprotein (UniProt P02771); assay: multiplex no-wash sandwich, S10473 beads; Negative serum, AFP 2 U/mL
[22] = target: Human chorionic gonadotropin (human) (UniProt P01215); assay: anti-AFP capture beads, flow cytometry; hCG 100.0 ng/mL, anti-AFP probe
Alpha fetoprotein [23] = target: Alpha fetoprotein (UniProt P02771); assay: multiplex sandwich, S10473 capture beads; AFP 1000 ng/mL, no wash
Alpha fetoprotein [24] = target: Alpha fetoprotein (UniProt P02771); assay: multiplex sandwich, S10473 capture beads; AFP 1 ng/mL, washed
[25] = target: Human chorionic gonadotropin (human) (UniProt P01215); assay: MAB602 capture beads, flow cytometry; hCG 100.0 ng/mL, anti-AFP probe
[26] = target: Human chorionic gonadotropin (human) (UniProt P01215); assay: anti-AFP capture beads, flow cytometry; hCG 1000.0 ng/mL, anti-AFP probe
Alpha fetoprotein [27] = target: Alpha fetoprotein (UniProt P02771); assay: multiplex sandwich, S10473 capture beads; AFP 500 ng/mL, washed
Alpha fetoprotein [28] = target: Alpha fetoprotein (UniProt P02771); assay: anti-AFP capture beads, flow cytometry; AFP 0.0 ng/mL, anti-AFP probe
[29] = target: Neutravidin (deglycosylated avidin) (UniProt P02701); assay: single-analyte, Neutravidin bead 60/70 without peptide, flow cytometry
Chain of UniProt P02701 (P02701 25-152 limits assumed): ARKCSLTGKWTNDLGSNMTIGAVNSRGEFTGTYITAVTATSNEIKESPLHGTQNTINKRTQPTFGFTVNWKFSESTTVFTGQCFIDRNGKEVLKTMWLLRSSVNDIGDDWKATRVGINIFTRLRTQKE

[30] = target: Neutravidin (deglycosylated avidin) (UniProt P02701); assay: single-analyte, Neutravidin bead 70/70 without peptide, flow cytometry
[31] = target: Neutravidin (deglycosylated avidin) (UniProt P02701); assay: multiplex, Neutravidin bead 40/60 without peptide, flow cytometry
Peptide 1 …-biotin = assay: multiplex 9-peptide bead set, flow cytometry; MAB 384-Bodipy 15.5 ug/mL
Peptide 4 …-biotin = assay: as above
Peptide 7 …-biotin = assay: as above
Peptide 9 …-biotin = assay: as above
[32] = target: Peptide 5 …-biotin (human); assay: as above
Peptide 3 …-biotin = assay: as above
Peptide 8 …-biotin = assay: as above
Peptide 6 …-biotin = assay: as above
Peptide 2 …-biotin = assay: as above

Chain of UniProt P01215 (P01215 25-116, chain 1 of 2, other chains not shown): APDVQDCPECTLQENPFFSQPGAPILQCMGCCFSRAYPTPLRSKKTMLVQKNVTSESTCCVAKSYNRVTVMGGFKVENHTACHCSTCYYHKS
Chain of UniProt P02771 (P02771 19-609 limits assumed): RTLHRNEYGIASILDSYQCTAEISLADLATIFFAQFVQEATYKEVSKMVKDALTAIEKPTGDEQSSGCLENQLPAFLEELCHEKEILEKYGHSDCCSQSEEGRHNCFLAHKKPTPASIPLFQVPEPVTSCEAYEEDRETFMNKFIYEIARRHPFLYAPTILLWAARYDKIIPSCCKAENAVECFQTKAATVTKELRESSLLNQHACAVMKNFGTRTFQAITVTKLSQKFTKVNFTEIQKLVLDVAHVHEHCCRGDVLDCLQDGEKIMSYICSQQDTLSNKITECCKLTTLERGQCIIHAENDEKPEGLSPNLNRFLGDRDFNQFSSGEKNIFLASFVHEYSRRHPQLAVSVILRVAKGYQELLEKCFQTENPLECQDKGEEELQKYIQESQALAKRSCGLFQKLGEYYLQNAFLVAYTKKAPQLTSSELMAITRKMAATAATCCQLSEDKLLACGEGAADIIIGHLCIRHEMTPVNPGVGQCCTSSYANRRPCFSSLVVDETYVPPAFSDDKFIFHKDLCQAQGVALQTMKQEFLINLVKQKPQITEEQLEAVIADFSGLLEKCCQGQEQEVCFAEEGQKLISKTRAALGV

AB633 affinity purified polyclonal anti-hCG antibody, Bodipy FL-CASE labeled
MIF of Fm (Alpha fetoprotein [1]): 75
MIF of Fm [2]: 3150
MIF of Fm [3]: 9440
MIF of Fm (Alpha fetoprotein [4]): 71
MIF of Fm [5]: 1300
MIF of Fm [6]: 3180
MIF AVG [7]: 25.7
MIF of FL1 [7]: 23 and 27
MIF of Fm [8]: 3340
MIF of Fm [9]: 2420
MIF AVG [10]: 7.33
MIF of FL1 [10]: 8 and 7
MIF of Fm [11]: 792
MIF of Fm (Alpha fetoprotein [12]): 47
MIF of Fm [13]: 122 and 149
MIF of Fm [14]: 48
MIF of Fm [15]: 2530
MIF of Fm [16]: 359

M20077 affinity purified polyclonal anti-AFP antibody, Bodipy FL-CASE labeled
MIF of Fm [17]: 49
MIF of Fm (Alpha fetoprotein [18]): 59
MIF of Fm [19]: 44
MIF of Fm (Alpha fetoprotein [20]): 17
MIF AVG (Alpha fetoprotein [21]): 12.3
MIF of FL1 (Alpha fetoprotein [21]): 11 and 13
MIF of Fm [22]: 44
MIF of Fm (Alpha fetoprotein [23]): 379
MIF of Fm (Alpha fetoprotein [24]): 35
MIF of Fm [25]: 48
MIF of Fm [26]: 78
MIF of Fm (Alpha fetoprotein [27]): 1380
MIF of Fm (Alpha fetoprotein [28]): 45

MAB 384, Bodipy FL-X labeled (antibody)
MIF of Fm [29]: 48
MIF of Fm [30]: 66
MIF of Fm [31]: 26
MIF of Fm (Peptide 1 …-biotin): 28
MIF of Fm (Peptide 4 …-biotin): 35
MIF of Fm (Peptide 7 …-biotin): 35
MIF of Fm (Peptide 9 …-biotin): 29
MIF of Fm [32]: 1350
MIF of Fm (Peptide 3 …-biotin): 36
MIF of Fm (Peptide 8 …-biotin): 32
MIF of Fm (Peptide 6 …-biotin): 67
MIF of Fm (Peptide 2 …-biotin): 36
